One molecule from patent US20260234188A1, “CHEMOKINE-BINDING PEPTIDES” (Oxford University Innovation Limited, priority 2022, published 2026) can be followed below.

One assay deals with T1, CXCL10 (Homo sapiens, UniProt P02778).
T1 construct: purchased Peprotech
T1 sequence (P02778 22-98): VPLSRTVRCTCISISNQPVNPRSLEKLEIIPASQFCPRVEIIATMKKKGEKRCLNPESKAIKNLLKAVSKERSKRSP
Put plainly: CXCL10-induced activated T-cell migration, transwell assay. In kind it is cell-based. Conditions: dose of 20 μM. As to the method:
FIG. 2. […] BK1.2 is described in (Darlot, 2020). […] Chemokines used are indicated by the name, followed in parenthesis by the supplier code (P in supplier code indicates Peprotech). […] All experiments were performed at EC80 doses of indicated chemokine. Data are shown as box-whisker plots of three technical and three biological replicates. Statistically significant differences (compared to control, indicated by #), using Dunnett's test with correction for multiple comparisons, are indicated by asterisks: ****=P≤0.0001, ***=P≤0.001, **=P≤0.01, *=P≤0.05.
FIG. 11. […] Technical replicates are shown as individual data points. […] The response curve (solid blue line) and its 95% confidence interval (grey ribbon) were calculated using a 4-parameter log-logistic plot.
Briefly, cell migration assays use THP1 cells (human monocyte) and primary human buffy coat white cells (consisting of neutrophil granulocytes, monocytes, and lymphocytes), and activated T-cells. THP1 cells and primary monocytes respond to CCL2, CCL3, CCL5, CCL8 and CXCL4, granulocytes to CXCL1 and CXCL8, activated T-cells to CXCL9/10/11. Assays are performed in 96-well Boyden chambers, and migrated cells counted and characterized using and ATTUNE Flow Cytometer as described. […]

The test system of the next assay is CC and CXC chemokines. The assay can be described thus: Chemokine-induced cell migration assays, pooled over chemokines (meta-analysis). In kind it is cell-based, human. Conditions: CC chemokines. As to the method: FIG. 16. Effect of HD2 alanine mutations on chemotaxis. […] All experiments were performed as three technical and three biological replicates, and individual data points are indicated, and coloured by the chemokine used. Statistically significant differences (compared to control, coloured blue), using Dunnett's test with correction for multiple comparisons, are indicated by asterisks: ****=P≤0.0001, ***=P≤0.001, **=P≤0.01, *=P≤0.05, n=45 observations per group (three technical and three biological replicates for each chemokine). FIG. 16B, Faceted plots of change in median normalised cell count between alanine mutant and wild-type HD2 peptide obtained in cell migration assays (Y-axis, Δmedian normalised cell count) versus alanine mutated residue (X-axis). Chemokines used for each experiment are indicated in the strip to the right of each plot. Statistically significant differences compared to parental HD2 are shown as red dots. […]
Briefly, cell migration assays use THP1 cells (human monocyte) and primary human buffy coat white cells (consisting of neutrophil granulocytes, monocytes, and lymphocytes), and activated T-cells. […] Assays are performed in 96-well Boyden chambers, and migrated cells counted and characterized using and ATTUNE Flow Cytometer as described. […]

B1: EVA4: parental class A tick evasin protein of HD2, expressed in HEK293F cells (protein)
chain: EVPQMTSSSAPDLEEEDDYTAYAPLTCYFTNSTLGLLAPPNCSVLCNSTTTWFNETSPNNASCLLTVDFLTQDAILQENQPYNCSVGHCDNGTCAGPPRHAQCW
For the molecule B1, the “inhibition of cell migration” value with CXCL10 is reported as “did not inhibit”. The “inhibition of CC chemokines in dose-response experiments” value in the assay on CC and CXC chemokines is “inhibited”.
